Here are results for three molecules from article PMC12219266, “The molecular basis for acetylhistidine synthesis by HisAT/NAT16” (Nature Communications, 2025).

One series deals with T1, NAT16 (HisAT) (Homo sapiens, UniProt Q8N8M0).
T1 construct: full length (369 aa), C-terminal 6xHis tag kept, codon-optimised, pFastBac1, Sf9 insect cells
T1 sequence (Q8N8M0 1-369): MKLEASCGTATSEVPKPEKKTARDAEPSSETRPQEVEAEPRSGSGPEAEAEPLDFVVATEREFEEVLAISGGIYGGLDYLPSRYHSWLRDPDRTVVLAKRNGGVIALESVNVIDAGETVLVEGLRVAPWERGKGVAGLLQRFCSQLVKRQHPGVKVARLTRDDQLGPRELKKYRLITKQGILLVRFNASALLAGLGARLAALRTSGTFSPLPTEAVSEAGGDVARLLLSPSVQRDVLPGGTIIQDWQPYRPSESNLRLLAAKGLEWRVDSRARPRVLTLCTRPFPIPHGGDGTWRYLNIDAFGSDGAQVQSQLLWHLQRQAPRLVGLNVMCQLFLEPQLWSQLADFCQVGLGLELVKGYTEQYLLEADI
Briefly: DTNB real-time assay, Michaelis-Menten fit. Type of series: biochemical. Conditions: 50 µM Ac-CoA; 50 mM Na-phosphate pH 7.5, 37 °C.

Substrate in series [1]: N[C@@H](Cc1c[nH]cn1)C(=O)O
Briefly: DTNB real-time assay, initial rates, ternary complex model, secondary plots. Type of series: biochemical, Homo sapiens. Conditions: varied with Ac-CoA, 50 mM Na-phosphate pH 7.5, 100 mM NaCl, 1 mM EDTA, 37 °C. From the text: (§1) DTNB real-time assay, initial rates, ternary complex model, secondary plots on NAT16 (HisAT)

Substrate in series [2]: CC(=O)SCCNC(=O)CCNC(=O)[C@H](O)C(C)(C)COP(=O)(O)OP(=O)(O)OC[C@H]1O[C@@H](n2cnc3c(N)ncnc32)[C@H](O)[C@@H]1OP(=O)(O)O
The series is described as above. Type of series: biochemical, Homo sapiens. Conditions: varied with L-histidine, 50 mM Na-phosphate pH 7.5, 100 mM NaCl, 1 mM EDTA, 37 °C.
Excerpt: as §1

For the molecule `N=C(N)NCCC[C@H](N)C(=O)O` [arginine], on NAT16 (HisAT), the “apparent KM” value is “determined the apparent kcat and KM with arginine and lysine”.

On to `NCCCC[C@H](N)C(=O)O` [lysine], for which, on NAT16 (HisAT), the “apparent KM” value was “determined the apparent kcat and KM with arginine and lysine”.

B1: NAT16 (HisAT) (Homo sapiens) (protein)
chain: T1 sequence (Q8N8M0 1-369)
notes: full length (369 aa), C-terminal 6xHis tag kept, codon-optimised, pFastBac1, Sf9 insect cells
For the molecule B1, in series [1], the Km worked out at 215 ± 53 µM, the kcat stood at 36.5 ± 4.6 s⁻¹ and the kcat/Km was 177000 M⁻¹ s⁻¹. Further, in series [2], the Km is on record as 19.8 ± 4.5 µM, the kcat was 36.5 ± 4.6 s⁻¹ and the kcat/Km amounted to 1.9e+06 M⁻¹ s⁻¹.
